Patent US9066986B2, “Anti-CEACAM6 antibodies and uses thereof” (National Research Council of Canada, priority 2010, dated 2015)
Each block holds one molecule with its values, some of them ahead of it.

What was measured:
[1] = system: MMP-2; assay: Gelatin zymography of conditioned media from treated BxPC3 cells; format: cell-based, human
Description: (§1) Gelatin zymography is used to detect the activity of gelatinases, namely, matrix metalloproteinases MMP-2 and MMP-9 (28).
(§2) The medium aliquots were taken from BxPC3 cultures at the time the proliferation assays (Example 9) were performed. For evaluation of dose-dependence effect, antibodies and gemcitabine were used at concentrations of 0.4-25 μM and 0.4-50 nM, respectively. The media were applied to a 10% sodium dodecyl sulfate-polyacrylamide gel electrophoresis gel (SDS-PAGE) that was supplemented with 1.5 mg/ml gelatin. The gel was run at 150 V until the bromophenol blue dye reached the bottom of the gel. SDS was removed from the gel by washing the gel four times with 2.5% Triton X-100 for 30 min at room temperature with gentle shaking using an orbital shaker (28). The gel was then incubated overnight at 37° C. in development buffer comprising 50 mM Tris-HCl, 0.2 M NaCl, 5 mM CaCl2, 5 mM ZnCl2, 0.02% Brij-35, and 0.05% NaN3 at pH 7.4. Gelatinase-digested gelatine-supplemented gels were stained with Coomassie blue. Clean bands produced by MMP-2 and MMP-9 activity were visible against the blue background after de-staining. The relative activities of the gelatinases were determined by using a densitometer (AlphaView, Fluor Chem SP, Alpha Innotech Corporation, San Leandro, Calif., USA).

[2] = system: MMP-9; assay: as above; format: cell-based, human; conditions: for effect on MMP-9 activity: media from treated BxPC3 cells
Description: as §1, §2

[3] = system: HUVECs; assay: In vitro capillary formation assay with conditioned media of treated BxPC3 cells; format: cell-based, human; conditions: for inhibition of tubule formation (endothelial cell angiogenesis): HUVEC in conditioned media from BxPC3 cells treated 24 hrs, 16 h culture
From the text: Angiogenesis is another critical step in the progression of pancreatic cancer. Relatively complex and dense micro-vessels are localized in pancreatic cancer tissue. Highly vascular tumors are associated with an increased risk of hepatic metastasis and a poor survival rate (Semenza, 2003). Anti-angiogenesis is a valid strategy when employing pancreatic cancer target therapy. Thus, the in vitro capillary formation assay was used to test the ability of conditioned media of sdAb-treated BxPC3 cells to inhibit HUVECs angiogenesis.
The matrix was then polymerized at 37° C. for 30 min. […] HUVEC cells were then seeded onto the polymerized matrix at 5×10^4 cells per well. The cells were cultured at 37° C. for 16 h then stained with Calcein AM (Invitrogen) for 30 min. Photographs were taken at 100× magnification employing fluorescence microscopy (Olympus BX51). Three fields that were randomly chosen were captured and the lengths of the capillaries in each field were measured.

[4] = system: BxPC3 cells; assay: In vitro MTT cell proliferation assay; format: cell-based, human; conditions: for inhibition of BxPC3 cell proliferation: vs starvation medium control
Description: (§3) Cells were left to grow for 72 h in the presence of the sdAb, then assayed for viability. Briefly, 20 μl of MTT reagent (2 mg/ml in PBS) was added to each well. After four hours, the supernatant was removed, adherent cells were lysed, and the crystals were solubilized with 100 μl dimethyl sulfoxide (DMSO, Sigma) per well. The absorbance of the formazan product was measured with a plate reader at a wavelength of 570 nm. After subtracting background absorbance, results were expressed as absorbance.
as §2

[5] = system: BxPC3 cells; assay: Matrigel invasion assay; format: cell-based, human; conditions: for invasiveness of treated cells decreased to: 40 μM, 20 hrs, normalized to non-treated control
Description: Matrigel invasion assay is designed to evaluate the capability of cells to invade into matrigel, an indication of the capacity to metastasize.
The assay was carried out by using bio-coated Matrigel invasion chambers (BD Biosciences, Bedford, Mass.). […] Only cells that could digest the matrix could migrate through the pores. […] The cells were re-suspended in RPMI medium and seeded on the tops of insert wells at 1×10^5 cells/well density and cultured at 37° C. in a humidified CO2 chamber. After 20 hrs, the non-invasive cells were scrubbed from the top of the insert well using a cotton-swap. The invasive cells on the bottom surface were stained with Calcein AM (Invitrogen) and were photographed with an Olympus BX51 microscope. All experiments were performed in triplicate.

[6] = system: A549 cells; assay: Flow cytometry with FITC-labelled sdAb; format: cell-based, human; conditions: FITC-labelled 2A3, 5 μg/ml, fixed A549 cells, FACS
Description: (§4) For flow cytometry, purified sdAbs were labelled with FITC as instructed by the manufacturer (Invitrogen). Different cell lines were grown as a monolayer until they were approximately 80% confluent. After fixing by 10% formaldehyde in PBS for 10 minutes, cells were washed with PBS then incubated at room temperature with different FITC-labelled sdAbs. After one hour of incubation, cells were washed twice with PBS to remove unbound sdAbs and the cells were analyzed by flow cytometry using a FACS Canto flow cytometer (BD Bio-sciences).

[7] = system: LS174T cells; assay: Flow cytometry with FITC-labelled sdAb; format: cell-based, human; conditions: FITC-labelled 2A3, 5 μg/ml, fixed LS174 cells, FACS
Description: as §4

[8] = system: BxPC3 cells; assay: Flow cytometry with FITC-labelled sdAb; format: cell-based, human; conditions: FITC-labelled 2A3, 5 μg/ml, fixed BxPC3 cells, FACS
Description: as §4

[9] = biological target: T1, CEACAM6 N-domain (Homo sapiens, UniProt P40199); assay: Affinity measurement by surface plasmon resonance (Biacore 3000); set-up: made in house; host or cells: E. coli; conditions: SPR, CEACAM6 immobilized, 1:1 Langmuir binding model
T1 sequence (P40199 35-142 limits assumed): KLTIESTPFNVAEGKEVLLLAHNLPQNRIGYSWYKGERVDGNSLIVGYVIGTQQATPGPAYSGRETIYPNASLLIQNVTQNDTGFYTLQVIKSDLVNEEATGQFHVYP
Description: 209 RUs of CEACAM6 and 1746 RUs of Ovalbumin (as reference protein) were immobilized on research grade sensor chip CM5 (GE HealthCare). Immobilizations were performed with an amine-coupling kit (GE Healthcare) and carried out at 50 μg/ml CEACAM6 in 10 mM Acetate, pH 4 (GE Healthcare) and 50 μg/ml of Ovalbumin in 10 mM Acetate, pH 4.5. 120 μL of the sdAb at concentration of 1 nM to 60 nM were injected over the surfaces at a flow rate of 40 μl/min. Analyses were carried out at room temperature in HBS-EP, 10 mM HEPES pH 7.4, 150 mM NaCl, 3 mM EDTA and 0.005% surfactant P20 (GE Healthcare). Regeneration was performed with running buffer (HBS-EP). Data were analyzed with BIAevaluation software 4.1.
One hundred twenty microliters of CEACAM6 recombinant protein at concentration of 0.1 nM to 200 nM was injected over the surfaces at a flow rate of 40 μl min-1. Analyses were carried out at room temperature in HBS-EP comprising 10 mM HEPES pH 7.4, 150 mM NaCl, 3 mM EDTA and 0.005% surfactant P20 (GE Healthcare). Regeneration was performed with HBS-EP used as running buffer. The data were analyzed by using BIAevaluation software 4.1.

[10] = biological target: T1, CEACAM6 N-domain
Description: Maxisorb 96-well microtiter plates (Nunc) were coated with 2 μg/ml recombinant CEACAM6 protein (N-domain) overnight at 4° C. in phosphate-buffered saline (PBS). 2% fat-free dry milk solution in PBS was used for 2 h at room temperature to block the residual protein-binding sites in the wells. Serial diluted serum or soluble recombinant sdAbs were added to the wells, which were incubated at 37° C. for 24 hr. Detection of llama IgGs and sdAb was performed with goat anti-llama IgG (Bethyl Lab, Montgomery, Tex.), horseradish peroxidase anti-goat conjugate (Cedarlane, Burlington, ON) and the corresponding substrate KPL for peroxidase. The reaction was stopped by adding 1 M H3PO4 and the absorption at 405 nm was measured.
The sdAb was incubated in mouse serum and the residual binding capacity was measured by ELISA then compared with the same antibody that was not incubated in serum.

[11] = system: LS174 cells; assay: In vitro MTT cell proliferation assay; format: cell-based, human; conditions: 125 μg/ml antibody
Description: as §3

[12] = system: A549 cells; assay: In vitro MTT cell proliferation assay; format: cell-based, human; conditions: 125 μg/ml antibody
Description: as §3

[13] = system: BxPC3 tumor; assay: Ex vivo biodistribution (γ-counter); conditions: 64Cu-DOTA-labelled, 24 hr p.i., n=4
Description: Blood, tumor, major organs, and tissues were collected and wet-weighed. The radioactivity in the wet whole tissue was measured with a γ-counter (Packard). The results were expressed as percentage of injected dose per gram of tissue (% ID/g) for a group of 4 animals. For each mouse, the radioactivity of the tissue samples was calibrated against a known aliquot of the injected radiotracer and normalized to a body mass of 20 g. Values were expressed as mean±SD (n=4/group).

[14] = system: BxPC3 tumor; assay: Small animal PET imaging and ROI analysis
Description: Subcutaneous BxPC3 tumor model was established in 5 to 6-week-old female athymic nude mice obtained from Harlan (Indianapolis, Ind.); 5×10^6 cells suspended in 50 μl of phosphate buffered saline (PBS) were injected and the mice underwent small animal PET studies when the tumor volume reached 100-200 mm^3 (3-4 weeks after inoculation). PET scans and image analysis were performed using an Inveon microPET scanner (Siemens Medical Solutions). About 3.7 MBq (100 μCi/5 μg) of ^64Cu-DOTA-Abs were administered via tail vein injection under isoflurane anesthesia. Five-minute static PET images were acquired at different time points post-injection (p.i.; n=4/group). The images were reconstructed using a two-dimensional ordered-subset expectation maximization (2D OSEM) algorithm, and no correction was applied for attenuation or scattering. For each scan, regions of interest (ROIs) were drawn over the tumor and major organs using vendor software (ASI Pro 5.2.4.0) on decay-corrected whole-body coronal images. The radioactivity concentrations (accumulation) within the tumors, muscle, liver, and kidneys were obtained from mean pixel values within the multiple ROI volume and then converted to MBq per milliliter per minute using the calibration factor determined for the Inveon PET system. […]

[15] = system: UM-SCC-22B cells; assay: Cell uptake of 64Cu-labelled tracer; format: cell-based, human; conditions: 22B cells compared with BxPC3 cells
Description: (§5) Cell uptake, internalization, and efflux of ^64Cu-DOTA-2A3-Fc were performed with BxPC3 and UM-SCC-22B tumor cells (negative control). For cell uptake, the cells were seeded into 24-well plates at a density of 1×10^5 cells per well and incubated with 18.5 kBq (0.5 μCi/5 ng)/well of ^64Cu-labelled tracer at 37° C. for 15, 30, 60, and 120 min. The cells were then washed three times with chilled PBS and lysed with 500 μL 0.1 M NaOH. For efflux studies, about 18.5 kBq (0.5 μCi)/well of ^64Cu-DOTA-2A3-mFc were first incubated with BxPC3 cells in 24-well plates for 2 h at 37° C. The cells were washed three times with chilled PBS and allowed to stand with fresh buffer. At various time points, the medium was removed and the cells washed three times with chilled PBS. The cells were then lysed with 500 μL 0.1 M NaOH. The cell lysate was collected and the remaining radioactivity was measured in a γ counter (Packard, Meriden, Conn.). The cell uptake, and efflux were expressed as the percentage of the added dose (% AD) after decay correction. All experiments were performed with triplicate wells.

[16] = system: BxPC3 cells; assay: Cell uptake and efflux of 64Cu-labelled tracer; format: cell-based, human
Description: as §5

IC50 ([4]; Homo sapiens, BXPC-3, 72 h, MTT, n=5): 12 nM
Molecule: Nc1ccn([C@@H]2O[C@H](CO)[C@@H](O)C2(F)F)c(=O)n1 [gemcitabine, reference compound]
increase of MMP-2 activity ([1]; at high dosages): ~10%
effect on MMP-2 activity ([1]; media from treated BxPC3 cells): does not affect MMP-2 and MMP-9 activity
increase of MMP-9 activity ([2]; at high dosages): ~10%
effect on MMP-9 activity [2]: slightly increased MMP-9 activity
effect on angiogenesis ([3]; culture medium from treated BxPC3 cells): inhibitory effects on angiogenesis were not seen
effect on invasion [5]: did not affect angiogenesis or invasion

dissociation rate (kd) [9]: 0.0053 s⁻¹
association rate (ka) ([9]; sdAb 1 nM to 60 nM, room temperature): 1.1e+06 M⁻¹ s⁻¹
B1: 2A3: anti-CEACAM6 llama single domain antibody (sdAb), SEQ ID NO:4 (protein)
VHH: QVKLEESGGGLVQAGGSLRLSCRTSGRTNSVYTMGWFRQAPGKEREFVAQIMWGAGTNTHYADSVKGRFTISRDSAESTVYLQMNSLKPEDTAVYYCAANRGIPIAGRQYDYWGQGTQVTVSS
modifications: Anti-CEACAM6 sdAb
cells stained positive [6]: ~20%
cells stained positive [7]: about 16%
cells stained positive [8]: approximately 90%
effect on MMP-2 activity ([1]; 5 μM dosage): did not influence MMP-2 activity significantly
effect on MMP-2 activity ([1]; media from treated BxPC3 cells): not MMP-2 activity
MMP-9 activity reduced to ([2]; 5 μM dosage): 25%
culture medium MMP-9 activity down-regulated by ([2]; 2A3-treated BxPC3 compared to non-treated cells): 33%
effect on MMP-9 activity [2]: reduce the activity of MMP-9
inhibition of tubule formation (endothelial cell angiogenesis) [3]: 21%
residual binding capacity after incubation in mouse serum [10]: retained its full binding capacity
effect on LS174 growth [11]: little effect on their growth
effect on A549 growth [12]: little effect on their growth
inhibition of BxPC3 cell proliferation ([4]; 50 μg/ml): approximately 27%
effect on BxPC3 proliferation ([4]; 125 μg/ml antibody, vs irrelevant sdAb BSA12, p<0.0001): inhibits BxPC3 proliferation in vitro
BxPC3 invasiveness reduced by [5]: ~73%
invasiveness of treated cells decreased to [5]: 27.4±8.4%

B2: 2A3-Fc: 2A3 sdAb fused to the mouse Fc2b fragment; heavy chain antibody (protein)
chain: QVKLEESGGGLVQAGGSLRLSCRTSGRTNSVYTMGWFRQAPGKEREFVAQIMWGAGTNTHYADSVKGRFTISRDSAESTVYLQMNSLKPEDTAVYYCAANRGIPIAGRQYDYWGQGTQVTVSS
modifications: left off: a dimerising Fc or GST
notes: heavy chain antibody
BxPC3 tumor uptake, ex vivo [13]: 95.4±29.3 % ID/g
effect on MMP-2 activity ([1]; media from treated BxPC3 cells): not MMP-2 activity
effect on MMP-9 activity [2]: reduce the activity of MMP-9
inhibition of tubule formation (endothelial cell angiogenesis) [3]: 49%
tumor uptake ([14]; 64Cu-DOTA-labelled, PET ROI, 24 hr p.i.): 98.2±6.12 % ID/g
share of the total injected dose distributed to tumor region ([14]; 24 hr after injection, average tumor size 184 mm^3): Roughly 18%
inhibition of BxPC3 cell proliferation ([4]; 360 μg/ml): 55%
invasiveness of treated cells decreased to [5]: 27.4±4.8%

B3: ^64Cu-DOTA-2A3-Fc: 2A3-Fc conjugated with DOTA and labelled with 64Cu, PET tracer (conjugate)
chain: QVKLEESGGGLVQAGGSLRLSCRTSGRTNSVYTMGWFRQAPGKEREFVAQIMWGAGTNTHYADSVKGRFTISRDSAESTVYLQMNSLKPEDTAVYYCAANRGIPIAGRQYDYWGQGTQVTVSS
modifications: left off: a dimerising Fc or GST
cell uptake [15]: much lower uptake
total cell uptake ([16]; 2 hr incubation, 37° C.): 10.13±0.05 % of total added dose
radioactivity retained on the cells (efflux) ([16]; after 2 h incubation in medium devoid of radioactivity): more than 65%
